Source: the DeepSol protein solubility set

Test: soluble on expression in E. coli; label from the status in PepcDB or PDB records

| Sequence | soluble on expression in E. coli |
| --- | --- |
| MQLSPKEFEYQFRCLYRPLNMYALRYTENLDDAEDIVQQAFSDVWEKLVGGTSIQNLKAYMYQTVRNRSLTLITNRQTHCETTELTDLEDLTEEERIIRSERDARLWTAIDHLPTERKKIFLLSKRDGLTYQEIATELGISIKTVEHQISKALKTLRETAIKIYTFFFG | not soluble |
| MQMMEQFYPKVSIVIPVYNGSDYMREAIDSALGQTYGNIEVIVVNDGSSDGGLTHEIALSYGGNIRYFAKENGGVASALNFAIRMMDGEYFSWLSHDDIYYPNKIETQIGYLAEHDRNAILYSDFELIDCLSKVIKPVNAGEIPPEQFLYNLITIGHLNGCTLLVPKRCFEETGFFDESLRSTQDYALWFTFAQKYRFEQIRKVLVKYRTHSNQGSYVIPTHSQEVNDLHIWFLEEASERGLLPIPDEGASRFFLEVAGIYKKRGIYRAADYSCSMALRHMRDEGGLALLRELPRVAYLKYYFRKKQFKSYLRELRRSTVRRSLLEHHHHHH | not soluble |
| MQNEQLLQEVGLNAYEAAAYLSLLKLGVSEASDIYRDSEVPYGKIYSVLESLAGKGFVEVQASRPKKFRAVDPELALDTFFERRKAEVEREMAFLKSSVEEAKSVLKAVPTQKRKDEFFWTTAITESEIKKFAVSIYSEVKKSVCVLPPVFGISIVFYLLPEITKAIDRGVRIKLMISPRFMALASVLSHQEGEILEKLKKGLDIRLVQNSNSCFGIVDDSIVVLFQPHPTDRDRVLSVVKVRDSGLAKNLKEEFDLLWNAGEKLDLQEELEDKQNPGKN | not soluble |
| MQNSLLTQHIAQIIAAEISSQPTQARAAIALLDEGASVPFIARYRKEATGGLDDTQLRILETRLTYLRELEERRSTILTSITEQGKLNDLLHAEILAADTKSRLEDLYLPYKPKRRTRAQIAREAGLEPLADSLLADPTLIPETVAANFVDPEKGITDIKTALEGARAILIERWGEDAALIGELRQWLANNGVIHARLIDNKEDTGAKYRDYFNHTELLSKIPSHRLLALFRARSEEILHLDLDPGNDADAGHQYCESMVMQAACVADQGRPADTWLMTACRLTWRAKLHMHLMLDLFNQAREKAEAEAITVFSNNLKDLLLAAPAGPRIVLGIDPGIRTGCKIAIVDTTGKLIATETIYPHEPRREWDKSLHTLKTLCTQHHITLIAIGNGTASRETDKLVSDLIKAHPALELQKIVVSESGASVYSASESAAKEFPDLDVSLRGAVSIARRLQDPLAELVKIDPKAIGVGQYQHDVDQFHLAKALDARVEDCVNAVGVYVNTASAALLSRVSGLSASVAENITRYRDEHGSFKQRQDLLKVPRLGAKTFEQCAGFLRIADGNQPLDASAVHPEAYPVVERIVQTTGKPIKALIGDSHTLRMLKPEQFTDTNFGIPTIRDIIKELEKPGRDPRPEFKAVRFTEGVENIKDLKPGMILEGVVSNVAAFGAFVDIGVHQDGLIHISALADRFVKDPRDIVKAGDIVKVKVLEIDVPRKRIALTCRLHEETPPETPVANRTGNERGRPNPVAKKVKATPTDNALAQAFARARLK | soluble |
| MQNVKHSYLACSSSSCCQFFSLFLSLCHAEHQIQTLSPSFAYTLLIFALLVSDKSEIALLSRHTHTYIFLPISSVHPSLELLPFVVFMHMRKLLNDVIRPLKKGDGRSAWNVLIVDTLAMRMLSSCCKMHNIMEEGITIVEDLNKRREPLPTLEAIYLIAPTAESIDKLIQDYCARNLYKCAHVFFTEACSDQLFSTLSKSAAARFIKTLKEINIAFTPYESQVFNLDSPDTFFLYYNAQKQGGLTSNLERIAEQIATVCATLGEYPSLRYRADFERNVELGHLVEQKLDAYKADDPSMGEGADKARSQLIIIDRGYDAITPLLHELTLQAMCYDLLGIENDVYKYETGGSDENLEKEVLLDENDDLWVEMRHKHIAVVSQEVTKNLKKFSESKGNKGTMDSKSIKDLSMLIKRMPQHKKELNKFSTHISLAEECMKQYQQGVDKLCKVEQDLSTGIDAEGERVRDAMKLMVPLLIDPAVRCEDRLRLILLYILSKNGITDENLNKLLQHANISMADKETITNAAYLGLNIVTDTGRKKTWTPTKKERPHEQVYQSSRWVPVIKDIIEDAIDERLDTKHFPFLAGRQVNQGYRAPASARYGQWHKERGQQSNYRSGPRLIIYIIGGVTFSEMRACYEVTAARKPWEVVIGSDRIITPDKFLTNLRDLNKPRDI | soluble |
| MQPLVSVLICAYNVEKYFAQSLAAVVNQTWRNLDILIVDDGSTDGTPAIARRFQEQDGRIRIISNPRNLGFIASLNIGLDELAKSGGGGEYIARTDADDIASPGWIEKIVGEMEKDRSIIAMGAWLEVLSEENNKSVLAAIARNGAIWDKPTRHEDIVAVFPFGNPIHNNTMIMRRSVIDGGLRFDPAYIHAEDYKFWYEAGKLGRLAYYPEALVKYRFHQDQTSSKYNLQQRRTAWKIKEEIRAGYWKAAGIAVGADCLNYGLLKSTAYALYEKALSGQDIGCLRLFLYEYFLSLEKYSLTDLLDFLTDRVMRKLFAAPQYRKILKKMLRPWKYRSYLEHHHHHH | not soluble |
| MQQYIGIDVGGTHVKYGVINSDGEELTHHQFDTPEDASTFTRKWQDVVARCQQDYDIAAIGVSFPGHINPHNGHAAKAGALAYLDDVNLMELFSGLTDLPLVVENDANCAALGEMWRGAGQHYENMVCITIGTGIGGGIIVGRELYRGAHFHAGEFGVMPVGNNGESMHKIASTSGLMASCRQALALPAEEMPPADVIFERMATDVHLREAVNDWARYLSRGVYSVISMFDPGVVLIGGGISEQEKLYPLLTRHLETFEMWEALQVPIQPCQLGNQAGRLGAVWLAQQKLDRG | not soluble |
| MQRARCYLLGETAVVLELEPPITLASQKRIWRLTQRLVDMPNVVEAIPGMNNITVILREPQTLALDAIERLQRWWEESEALEPDSRSVEIPVIYGGAGGPDLAAVARHSGLSEKQVVELHASVEYVVWFLGFQPGFPYLGNLPEPLHMPRRAEPRLQVPAGSVGIGGAQTGIYPLSTPGGWQLIGLTPLKLFDPMRETPVLLRPGDSVRFVPQKEGICMAGDPLEHHHHHH | not soluble |
| MQRVTITLDDDLLETLDSLSQRRGYNNRSEAIRDILRGALAQEATQEHGTQGFAVLSYVYEHEKRDLASRIVSTQHHHHDLSVATLHVHINHDDCLEIAVLKGDMGDVQHFADDVIAQRGVRHGHLQCLPKED | not soluble |
| MQRVVVAIDAKRVDGEFMVFTHSGKKNTGILLRDWVVEVEKRGAGEILLTSIDRDGTKSGYDTEMIRFVRPLTTLPIIASGGAGKMEHFLEAFLAGADKALAASVFHFREIDMRELKEYLKKHGGSGQAVVVAIDAKRVDGEFMVFTHSGKKNTGILLRDWVVEVEKRGAGEILLTSIDRDGTKSGYDTEMIRFVRPLTTLPIIASGGAGKMEHFLEAFLAGADAALAASVFHFREIDMRELKEYLKKHGVNVRLEGLLEHHHHHH | soluble |
| MQSASDGFSKMIKTLLYITPDPCPECGGNLYAWRAKNKDGSDRCPPTCMECGYKARKKAEDLETEKMFNDSLKARAINYLKYSSLYTDKNLINCRFKTYKTVDTETKLAFEIANRATTEILLNKPIHMILSGKSGVGKSHLAMSTAWEVLEKSNYDKRCLFISYAELLEQLKFAMNDEQARKEITGSLMAEIKSADLVVLDDLGAELGVKQIDDRNKSTNFNNDTLNRIVEARQNKATIFTTNLTGKEMSQAYGERILSRIMSNSQGFVMKIEGTSDKRVAGILEHHHHHH | soluble |
| MQSFADAKEFFQYSAGQWQSRRVTHHLPFRRAESGGSNIQVETLEKDDPRIIEICQMHDMDASLSVGGSYVTWAGTMQWDKDDENHEGSTVFALIPDADNPRQGKLLRERGYAEIVPVAGEYHLDHEDGLVLTTEYETMTIYERFWFANPDLRLRTSTVKRFGGFNTTTFCMEERIQTSPVTATAAAETNPLYAISGW | not soluble |
| MQSFLQLVAHDLYAKIGNDLSRTVLVFPNKRANLFFNEHLAGESDQPIWSPAAMSISDLFRKLSVQKAGDPIRLVCELYKVFREETESQETLDDFYFWGELLISDFDDVDKNLVDANKLFSNLQDLKNLMDDYEFLDKEQEEAIQQFFQNFSIERRTVLKEKFISLWDKLGTIYHRYRENLAELGIAYEGMLYRNVIEQLDTTRLKYDKYIFVGFNVLNKVETKFFQLLQDADKAMFYWDYDLFYTKQIVKHEAGEFINRNLKLFPNELPESCFDTLRKPKNIRYISASTENAQARFLPEWVQSTLSTANEEKENAVVLCNEALLLPVLHSIPQEVENVNITMGFPLAQTPVYSFINAAMELQTNGYRTATGRFTYETVSAILKHPYTRQLSINAEPLERELTKTNRFYPLPSELKMDDFLIKLFTPRSGIKELCDYLTELIKDISLLYREESEYNDIFNQLYRESLFKSYTTINRLYSLIETGELNVRTDTLRRLVSKVLTASNIPFHGEPAIGMQVMGVLETRNLDFRNIILLSLNEGQLPKSGGDSSFIPYNLRKAFGMTTIEHKNAVYAYYFYRLIQRAENITLLYNTSSNGLNRGEESRFMLQLLVEGPHKITREYLEAGQSPQGTTDISIEKTPEVFERLRCSYDCSNPQSYILSPSALNAYLDCRLKFYYRYVARLKAPDEVSAEIDSALFGTIFHLSAQLAYTDLTANRKIIQKEDLERLLRNEVKLQNYVDLAFKQELFKVPADEKPEYNGVQLINSKVIVSYLKQLLRNDLQYAPFEMVAMEKPVAEKITIQTGQGPITLRLGGTIDRMDAKDTTLRIVDYKTGGSPKTPANIEQLFTPSETRPNYIFQTFLYAAIMSRQQSLKVAPSLLYIHRAASESYSPVIEMGEPRQPKIPVNNFAFFEDEFRERLQRLLKEIFDENEPFTQTEDTKKCAYCDFKAICKR | not soluble |
| MQSLNVNGTLMTYSESGDPHAPTLFLLSGWCQDHRLFKNLAPLLARDFHVICPDWRGHDAKQTDSGDFDSQTLAQDLLAFIDAKGIRDFQMVSTSHGCWVNIDVCEQLGAARLPKTIIIDWLLQPHPGFWQQLAEGQHPTEYVAGRQSFFDEWAETTDNADVLNHLRNEMPWFHGEMWQRACREIEANYRTWGSPLDRMDSLPQKPEICHIYSQPLSQDYRQLQLEFAAGHSWFHPRHIPGRTHFPSLENPVAVAQAIREFLQA | soluble |
| MQTFVLATNSETVSQTLCSYLEGVLDLEDSVYAVNSQPGGDRTPPDAVADGKAALEVVSDRLGDQVSVETYQIIRGNSPADDIFDIAAEVDADELVIGVRKRSQTDRLIFGSVAQDIMRQSDYPMRVVPRD | not soluble |
| MQTQQERISTGVKGLDELIEGGLIPGRVYLITGPPGSGKTTFGMQFLLEGARRGEKVAYISLIHKPEEVVRDMVRFDPSVYVYVNNWRLILYDLGPILWRESTKVPTWRSVLSRIREITENEKITRLVIDPLTAIDFPLQDPVEKRVELAKFVRSLENLGVTTYLIAEMVELDKYSEEHYLVSGIIMLHYFMHEGRMIRAIQIFKMRGTKHDPNLKLLKFTDQGLVVYNKSPFEVV | soluble |
| MQTSIISAQSLSKLVSTNQEHLTILKQVNLSIQAGESVAIVGASGAGKSTLMTLLAGLDTPSEGEVYLLGKPLSQLDDEARAALRSESVGFVFQSFLLIPSLSALENVTLPCLLKGEAEDRERAQKLLKAVGLEHRMHHSPAQLSGGEQQRVAIARAFMISPQVLFADEPTGNLDQETAAKVIDLLFELNREHGTTLVLVTHDPKLAQRCQRRFFMQAGELEERV | not soluble |
| MQTYGGGWVLFQNRFDDSESYWDRKWDEYKNGFGDVDENSNFWLGNEALHVMTTNKKVTLRVEMYGDRTPNSKNATDFWFGHYFDFQVGSKTQNYPLLDLTMDWANPIGNASTAWYDLTCSIGSPFSTIDNIHDPVKECVTKFQMG | not soluble |
| MQVASRVKARRLEMNLTQEGIALRAGMKLPTYRRFERTGEISFRGLLQIGFALNALQDFALLFDQRLYQTLDEVLAEQQPKRKRGSKK | not soluble |
